# Measured values from article PMC6185872 (Cell Host & Microbe, 2018).
# How the values were obtained:
# [1] = target: T1, sCD4 D1D2 (domains 1 and 2; residues 1-186 of mature CD4); assay: cryo-EM structure; conditions: both partners purified
# T1 construct: also called soluble CD4; source: HEK293-6E, transient transfection, purified (Ni-NTA, SEC)
# [2] = target: T2, B41 SOSIP.664 v4.2 (HIV-1 (clade B B41)); assay: cryo-EM structure; conditions: both partners purified
# T2 construct: copies: 3 + 3
binder,measurement,setting,value
"21c Fab (Fab, V domains shown, also called CD4i antibody 21c) VH: QVQVVQSGAEVRKPGASVKVSCKVSGFTLTGLSIHWVRQAPGKGLEWMGGFGPEENEIIYAQKFQGRVSMTEDTSTNTAYMELSSLRSEDTAVYYCATGGNYYNLWTGYYPLAYWGQGTLVTVSS VL: QSVLTQPPSVSAAPGQKVTISCSGSSSNIGKNYVSWYQQLPGAAPKLLIFDDTQRPSGIPDRFSGSKSGTSATLAITGLQTGDEADYYCGTWDSSLSTGQLFGGGTKLTVL",binding result,[1],binds
same,stoichiometry N,[2],3 copies per Env trimer
